According to patent US20250019453A1 (SYNTHEKINE, published 2025):
Numbering of substitutions follows the chain as printed.

B1: hIL2Rg_VHH-4 (VHH)
VHH: QVQLQESGGGSVQAGGSLRLSCTASGFTFDDSDMGWYRQAPGNECELVSTISSDGNTYYTDSVKGRFTISQDNAKNTVYLQMNSLGPEDTAVYYCAAEPRGYYSNYGGRRECNYWGQGTQVTVSS
notes: As a his-tagged phage clone periplasmic extract
B2: hIL2Rg_VHH-13 (VHH)
VHH: B1 VHH with G26R, T28I, N56S, T60A, Q71R, G86K
notes: as for B1
B3: hIL2Rg_VHH-23 (VHH)
VHH: QVQLQESGGGLVQPGGSLRLSCAASGFSFSSYPMTWARQAPGKGLEWVSTIASDGGSTAYAASVEGRFTISRDNAKSTLYLQLNSLKTEDTAMYYCTKGYGDGTPAPGQGTQVTVSS
notes: as for B1
B4: hIL2Rg_VHH-5 (VHH)
VHH: B3 VHH with L11S, P14A
notes: as for B1
B5: hIL2Rg_VHH-18 (VHH)
VHH: B3 VHH with S28T
notes: as for B1
B6: hIL2Rg_VHH-2 (VHH)
VHH: B3 VHH with L11S, Q13P, P14A, R19K
notes: as for B1
B7: hIL2Rg_VHH-1 (VHH)
VHH: QVQLQESGGGSVQAGGSLRLSCAASGFTFDDSDMGWYRQAPGNECDLVSTISSDGSTYYADSVKGRFTISQDNAKNTVYLQMDSVKPEDTAVYYCAADFMIAIQAPGAGCWGQGTQVTVSS
notes: as for B1
B8: hIL2Rg_VHH-7 (VHH)
VHH: B7 VHH with S11L, A14P, S32R, D33E, G35N, D46E
notes: as for B1
B9: hIL2Rg_VHH-10 (VHH)
VHH: QVQLQESGGGSVQAGGSLRLSCAASGSIYSSAYIGWFRQAPGKKREGVAGIYTRDGSTAYADSVKGRFTISQDSAKKTVYLQMNSLKPEDTAMYYCAAGRRTKSYVYIFRPEEYNYWGQGTQVTVSS
notes: as for B1
B10: hIL2Rg_VHH-9 (VHH)
VHH: QVQLQESGGGSVQAGGSLRLSCTASGFTFDDSDMGWYRQAPGGECELVTISSDGSTYYADSVKGRFTISQDNAKNTVYLQMNSLKPEDTAVYYCAAEPRGYYSNYGGRRECNYWGQGTQVTVSS
notes: as for B1
B11: hIL2Rg_VHH-14 (VHH)
VHH: B10 VHH with R19K, A24V, F29A, A40G, G43N
notes: as for B1
B12: hIL2Rg_VHH-17 (VHH)
VHH: QVQLQESGGGLVQPGGSLRLSCAASGFTFSNAHMSWVRQAPGKGREWISSIYSGGSTWYADSVKGRFTISRDNSKNTLYLQLNSLKTEDTAMYYCAENRLHYYSDDDSLRGQGTQVTVSS
notes: as for B1
B13: hIL2Rg_VHH-11 (VHH)
VHH: B12 VHH with L11S, P14A, N31S, S49A, S56G, W58F, S74A, E97T
notes: as for B1
B14: hIL2Rg_VHH-6 (VHH)
VHH: B12 VHH with L11A, P14A
notes: as for B1
B15: hIL2Rg_VHH-16 (VHH)
VHH: B12 VHH with A23V
notes: as for B1
B16: hIL2Rg_VHH-12 (VHH)
VHH: B12 VHH with L11S, P14A
notes: as for B1
B17: DR1472 (VHH)
VHH: EVQLVESGGGLVRAGDSLRLSCAVSGLASSSFFMTWFRQGQGKEREFVATISWTGRTSYYAASVKGRFTVSRDNAKNTVYLQMNSLNSEDTAVYFCAAYPRTLVRNREPIHWGQGTQVTVSS
notes: as for B1
B18: DR1471 (VHH)
VHH: EVQLVESGGGLVQAGGSLRLSCVFSGRAPASYAMAWFRQAVGNEREFVAAINWSGRRTYYADSVKGRFTISKDNAQNTAYLQMTNLEPEDTATYYCNAYLSGTYYWGQGTQVTVSS
notes: as for B1
B19: mIL2Rg_VHH3 (VHH)
VHH: QVQLQESGGGSVQAGASLRLSCSVSGFTFDESVMSWLRQGPGNECDAVAIISSDDNTYYDDSVKGRFTISEDNAKNMVYLQMNSLKPEDTAVYYCAARRRRPVYDSDYELRPRPLCGDFGVWGQGTQVTVSS
notes: as for B1
B20: mIL2Rg_VHH9 (VHH)
VHH: QVQLQESGGGSVQAGGSLRLSCAASGFTFDDFDMGWYRQAPGNECELVSTISDDGSTYYADSVKGRSSISRDNAKNTVYLQMNSLKPEDTAVYYCAAEGALGSKTNCGWVGNFGYWGQGTQVTVSS
notes: as for B1
B21: mIL2Rg_VHH14 (VHH)
VHH: B20 VHH with D61N, T77M
notes: as for B1
B22: mIL2Rg_VHH8 (VHH)
VHH: B20 VHH with A23T, S84R, A91G
notes: as for B1
B23: mIL2Rg_VHH11 (VHH)
VHH: B20 VHH with S11L, A14P, R19K, D30S, F32R, L47R
notes: as for B1
B24: mIL2Rg_VHH10 (VHH)
VHH: B20 VHH with S11L, A14P, N76S, S84R, A91G
notes: as for B1
B25: mIL2Rg_VHH15 (VHH)
VHH: B20 VHH with A23T, S84R, A91G, T105M
notes: as for B1
B26: mIL2Rg_VHH12 (VHH)
VHH: QVQLQESGGGSVLAGGSLRLSCVASGYGYNYIGWFRQTPGKEREGVAVIYIGGGDTYYADSVKGRFTASRDNAKSTLYLQMNSLEPEDTAMYYCVARYCVGSVYACLRGGHDEYAHWGQGTQVTVSS
notes: as for B1
B27: mIL2Rg_VHH13 (VHH)
VHH: B26 VHH with I51T
notes: as for B1
B28: mIL2Rg_VHH6 (VHH)
VHH: QVQLQESGGGSVQAGGSLRLSCATSGFPYSRYCMGWFRQAPGKEREGVAAIEPDGSTSYADSVKGRFTISQDNAVNTLYLQMNNLKPEDTAMYYCAADERCFYLKDYDLRRPAQYRYWGQGTQVTVSS
notes: as for B1
B29: mIL2Rg_VHH4 (VHH)
VHH: QVQLQESGGGSVQAGGSLRLSCIGSGLPFDEDDMGWYRQAPGNECELVSSISSDGTAYYADSVKGRFTISRDNAKNTVLLQMNSLKPEDTAVYYCAAGVHRQFGGSSSCGDAFYGMDYWGKGTQVTVSS
notes: as for B1
B30: mIL2Rg_VHH7 (VHH)
VHH: QVQLQESGGGLVQPGGSLRLSCTVSGFTFDESDMGWLRQNPGNECGVVSVITSDDNPYYDDSVKGRFTISEDNAKNMVYLQMNSLKPEDTGVYYCATRSRQPVYSRDYELRPRPLCGDFGVWGQGTQVTVSS
notes: as for B1
B31: mIL2Rg_VHH2 (VHH)
VHH: QVQLQESGGGSVQPGGSLRLSCAASGSTYANYLMGWFRQAPGKEREGVAAIYSGGGSTYYADSVKGRFTISQDNAKNTLYLQMNSLKPEDTAMYYCAAASAVKGDKGDIVVVVTGTQRMEYDYWGHGTQVTVSS
notes: as for B1
B32: mIL2Rg_VHH5 (VHH)
VHH: QVQLQESGGGSVQAGGSLRLSCVASGDVYGRNSMAWFRQAPGKEREGVAVGYSVVTTTYYADSVKGRFTISEDNDKNTVYLEMNSLKPEDTAMYYCAADGNLWRGLRPSEYTYWGQGTQVTVSS
notes: as for B1

Molecular target: T1, hIL2Rg ECD antigen (human, UniProt P31785 23-262)
T1 construct: The immunogen was the ECD fused to human IgG1 hinge and Fc; also called ECD of IL2Rg (human); human IL-2Rγ
T1 sequence: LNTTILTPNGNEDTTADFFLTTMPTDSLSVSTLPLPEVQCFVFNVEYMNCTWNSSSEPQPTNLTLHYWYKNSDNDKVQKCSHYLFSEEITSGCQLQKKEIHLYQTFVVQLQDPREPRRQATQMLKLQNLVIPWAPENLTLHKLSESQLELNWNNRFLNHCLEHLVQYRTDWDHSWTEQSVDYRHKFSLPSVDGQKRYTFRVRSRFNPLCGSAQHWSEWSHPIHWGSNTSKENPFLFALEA
Assay: PE-ELISA of phage clones

Binder | binding result
B1 | binds
B2 | binds
B3 | binds
B4 | binds
B5 | binds
B6 | binds
B7 | binds
B8 | binds
B9 | binds
B10 | binds
B11 | binds
B12 | binds
B13 | binds
B14 | binds
B15 | binds
B16 | binds

Molecular target: T2, mIL2Rb ECD antigen (murine, UniProt P16297 27-240)
T2 construct: The immunogen was the ECD fused to human IgG1 hinge and Fc; also called ECD of IL2Rb (mouse)
T2 sequence: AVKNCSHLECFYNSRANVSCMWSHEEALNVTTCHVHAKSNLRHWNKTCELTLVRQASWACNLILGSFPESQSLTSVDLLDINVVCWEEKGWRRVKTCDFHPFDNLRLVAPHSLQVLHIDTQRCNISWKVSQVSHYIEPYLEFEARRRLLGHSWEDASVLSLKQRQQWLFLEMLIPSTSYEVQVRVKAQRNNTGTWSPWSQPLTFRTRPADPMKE
Assay: PE-ELISA of phage clones

Binder | binding result
B17 | binds
B18 | binds

Molecular target: T3, mIL2Rg ECD antigen (murine, UniProt P34902 23-263)
T3 construct: The immunogen was the ECD fused to human IgG1 hinge and Fc; also called ECD of IL2Rg (mouse)
T3 sequence: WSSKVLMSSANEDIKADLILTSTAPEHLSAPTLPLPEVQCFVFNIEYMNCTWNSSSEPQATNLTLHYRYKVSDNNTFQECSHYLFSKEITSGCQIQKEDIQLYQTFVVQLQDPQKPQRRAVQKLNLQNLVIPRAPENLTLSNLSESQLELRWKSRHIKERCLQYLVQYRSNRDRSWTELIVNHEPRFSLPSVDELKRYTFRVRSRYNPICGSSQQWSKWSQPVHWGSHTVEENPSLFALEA
Assay: PE-ELISA of phage clones

Binder | binding result
B19 | binds
B20 | binds
B21 | binds
B22 | binds
B23 | binds
B24 | binds
B25 | binds
B26 | binds
B27 | binds
B28 | binds
B29 | binds
B30 | binds
B31 | binds
B32 | binds
